Assay results as given in publication PMC8415317 (Genes & Development, 2021).
Where no end group is shown, it is not given here.

Experiments:
[1] = target: T1, ERH-1 (Caenorhabditis elegans, UniProt Q22640); experiment: Isothermal titration calorimetry, binding to ERH-1; set-up: species or system C. elegans
T1 sequence (Q22640 1-103): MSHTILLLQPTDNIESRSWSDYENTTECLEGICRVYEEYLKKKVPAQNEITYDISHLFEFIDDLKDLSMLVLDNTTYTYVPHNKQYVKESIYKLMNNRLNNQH

[2] = target: T2, ERH-2:PID-3^pep 1:2 (Caenorhabditis elegans, UniProt O76616+Q20057); experiment: Isothermal titration calorimetry, binding to ERH-2:PID-3^pep 1:2; set-up: species or system C. elegans
T2 sequence (Q20057 1-113): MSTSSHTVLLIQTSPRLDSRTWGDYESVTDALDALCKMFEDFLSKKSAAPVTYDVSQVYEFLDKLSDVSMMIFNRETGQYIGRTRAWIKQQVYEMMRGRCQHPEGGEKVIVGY
T2 sequence (O76616 171-203 partner limits assumed): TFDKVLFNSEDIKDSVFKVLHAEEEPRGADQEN

[3] = target: T3, ERH-2 (Caenorhabditis elegans, UniProt Q20057); experiment: NMR-monitored titration of 15N-labeled ERH-2; type: binding, C. elegans; settings: 1H-15N HSQC titration, 25°C, NMR buffer pH 7.50, ERH-2 ~200 μM
T3 sequence (Q20057 1-113): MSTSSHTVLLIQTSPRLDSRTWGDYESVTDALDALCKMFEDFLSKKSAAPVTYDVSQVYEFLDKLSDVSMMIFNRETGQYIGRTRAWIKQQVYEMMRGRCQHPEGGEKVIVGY

[4] = target: T3, ERH-2; experiment: Isothermal titration calorimetry, binding to ERH-2; set-up: species or system C. elegans
[5] = tested on: ERH-2; type: binding, C. elegans
[6] = target: T1, ERH-1; experiment: Streptavidin pull-down, TOST-1/PID-1 mVenus-Strep bait with ERH-1; type: binding, C. elegans; settings: TOST-1 or PID-1 mVenus-Strep bait 10-20 μM, prey 1.2-fold molar excess, 4°C
[7] = tested on: ERH-2; experiment: Streptavidin pull-down, TOST-1/PID-1 mVenus-Strep bait with ERH-2; type: binding, C. elegans; settings: TOST-1 or PID-1 mVenus-Strep bait 10-20 μM, prey 1.2-fold molar excess, 4°C
[8] = target: T4, TOST-1-mVenus-Strep (C. elegans, UniProt Q18490 1-142); experiment: pull-down
T4 sequence (looked up): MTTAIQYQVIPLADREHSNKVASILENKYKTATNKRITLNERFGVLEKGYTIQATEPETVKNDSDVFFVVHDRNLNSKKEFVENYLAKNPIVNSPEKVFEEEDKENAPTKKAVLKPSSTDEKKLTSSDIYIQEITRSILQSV

[9] = tested on: TOST-1; experiment: Streptavidin pull-down of ERH-2 variants with TOST-1-mVenus-Strep; type: binding, C. elegans; settings: ERH-2 variants as prey, TOST-1-mVenus-Strep as bait
[10] = SEC-MALS, molecular mass and oligomeric state; type: physicochemical, C. elegans; settings: for average molecular mass: 2-5 mg/mL, 20 mM Tris/HCl pH 7.5, 150 mM NaCl, 2 mM DTT
[11] = target: T5, full-length ERH-2^FL (C. elegans, UniProt Q20057 1-113); experiment: ITC
T5 sequence (looked up): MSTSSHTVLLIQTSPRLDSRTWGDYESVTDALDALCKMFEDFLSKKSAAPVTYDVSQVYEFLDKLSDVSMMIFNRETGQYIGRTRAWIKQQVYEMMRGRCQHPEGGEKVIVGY

[12] = target: T6, TOFU-6^RRM (C. elegans, UniProt Q09293 1-99); experiment: SEC
T6 sequence (looked up): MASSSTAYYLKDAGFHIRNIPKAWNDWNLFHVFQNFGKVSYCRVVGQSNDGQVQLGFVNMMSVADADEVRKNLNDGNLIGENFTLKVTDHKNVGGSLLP

[13] = target: the molecule itself; experiment: SEC-MALS
[14] = target: Cy5-labeled 16-mer oligo(U) RNA; experiment: Fluorescence anisotropy RNA binding, Cy5-U16; settings: 100 nM Cy5-U16 RNA, 10 mM Tris/HCl pH 7.5, 50 mM KCl, 0.5 mM EDTA, ≥2 h at 15°C, single binding site model, n = 3 technical replicates
[15] = tested on: PID-3/TOFU-6 interaction; type: binding, C. elegans

KYKTATNKRITLNERFGVLEKGYTIQ [TOST-1^pep]
Kd [1]: 10 ± 2 µM
Kd [2]: 4 ± 2 µM
dissociation constant range from NMR exchange regime [3]: micromolar range

NYNTNLHRKVTLSDRFELAALGYEMKAK [PID-1^pep]
Kd [4]: 24 ± 3 µM
Kd [1]: 73 ± 11 µM
dissociation constant range from NMR exchange regime [3]: micromolar range

GST-PID-3^pep: GST-tagged PID-3 peptide (residues 171–203) (TFDKVLFNSEDIKDSVFKVLHAEEEPRGADQEN; also: N-terminal His6 and GST tags, order not given here)
binding to ERH-2 in GST pull-down [5]: ERH-2 could indeed bind to GST-PID-3^pep

PID-1: full-length PID-1, C-terminally tagged with monomeric Venus StrepII tag (NYNTNLHRKVTLSDRFELAALGYEMKAK)
binding to ERH-1 in streptavidin pull-down [6]: interacted with ERH-1
binding to ERH-2 in streptavidin pull-down [7]: Both PID-1 and TOST-1 bound ERH-2

B1: ERH-2 T13E (purified) (natural protein, C. elegans, UniProt Q20057 1-113, looked up)
chain: MSTSSHTVLLIQESPRLDSRTWGDYESVTDALDALCKMFEDFLSKKSAAPVTYDVSQVYEFLDKLSDVSMMIFNRETGQYIGRTRAWIKQQVYEMMRGRCQHPEGGEKVIVGY
binding result [8]: binds

B2: W87A (protein)
chain: MSTSSHTVLLIQTSPRLDSRTWGDYESVTDALDALCKMFEDFLSKKSAAPVTYDVSQVYEFLDKLSDVSMMIFNRETGQYIGRTRAAIKQQVYEMMRGRCQHPEGGEKVIVGY
modifications: left off: His6, N-terminal, state not stated | Trx, N-terminal, state not stated
binding to TOST-1 in streptavidin pull-down [9]: weaker interaction with TOST-1

B3: ERH-2: full-length C. elegans ERH-2 (protein, UniProt Q20057 1-113, looked up)
chain: MSTSSHTVLLIQTSPRLDSRTWGDYESVTDALDALCKMFEDFLSKKSAAPVTYDVSQVYEFLDKLSDVSMMIFNRETGQYIGRTRAWIKQQVYEMMRGRCQHPEGGEKVIVGY
modifications: full-length
oligomeric state [10]: homodimers
average molecular mass [10]: 27 kDa

B4: I81A/R83A (protein)
chain: MSTSSHTVLLIQTSPRLDSRTWGDYESVTDALDALCKMFEDFLSKKSAAPVTYDVSQVYEFLDKLSDVSMMIFNRETGQYAGATRAWIKQQVYEMMRGRCQHPEGGEKVIVGY
modifications: left off: His6, N-terminal, state not stated | Trx, N-terminal, state not stated
binding to TOST-1 in streptavidin pull-down [9]: weaker interaction with TOST-1

B5: PID-3/ERH-2: PID-3/ERH-2 subcomplex (protein, UniProt O76616 1-307; Q20057 1-113, looked up)
Protein pid-3: MVAHQKADFKSKWAMVVTVNNLNDKKRADLREFSEWFIETLRLEGAFIGHYFNYEAAPVTIVETLPGNFDSCTNAYQKIHKEHPQVVLVVHILPQSQSNEYEWMKVLASRYGFVRQGLLYDNCANRFQNVETDQNSVFRNMCQWIYRSGTAIVRNEGNACGILHGKDPKPTFDKVLFNSEDIKDSVFKVLHAEEEPRGADQENMLKISGYPGMLNTFGIAQLLTPYRVNGITITGAQSAVVALENKFQVYQAVQDFNGKKLDRNHKLQVSSLVVSSPAVPLEWPSLKKSKKLVEQVGKPIRLSKVSS
Enhancer of rudimentary …: MSTSSHTVLLIQTSPRLDSRTWGDYESVTDALDALCKMFEDFLSKKSAAPVTYDVSQVYEFLDKLSDVSMMIFNRETGQYIGRTRAWIKQQVYEMMRGRCQHPEGGEKVIVGY
average molecular mass [10]: 92 kDa

B6: ERH-1 (natural protein, C. elegans, UniProt Q22640 1-103, looked up)
chain: MSHTILLLQPTDNIESRSWSDYENTTECLEGICRVYEEYLKKKVPAQNEITYDISHLFEFIDDLKDLSMLVLDNTTYTYVPHNKQYVKESIYKLMNNRLNNQH
binding result [8]: binds

KYKTATNKRITLNERFGVLEKGYTIQ (peptide, UniProt Q18490 28-53, looked up) [TOST-1^pep]
Kd [11]: 13 µM

TFDKVLFNSEDIKDSVFKVLHAEEEPRGADQEN (peptide, UniProt O76616 171-203, looked up) [PID-3^pep]
stoichiometry N [11]: 0.97

B7: PID-3^RRM (domain or fragment, C. elegans, UniProt O76616 196-274, looked up)
chain: PRGADQENMLKISGYPGMLNTFGIAQLLTPYRVNGITITGAQSAVVALENKFQVYQAVQDFNGKKLDRNHKLQVSSLVV
binding result [12]: binds

B8: PID-3^RRM F247E/Q251R (purified) (domain or fragment, C. elegans, UniProt O76616 196-274, looked up)
chain: PRGADQENMLKISGYPGMLNTFGIAQLLTPYRVNGITITGAQSAVVALENKEQVYRAVQDFNGKKLDRNHKLQVSSLVV
stoichiometry N [13]: 2

B9: PID-3^RRM A220E (protein)
chain: PRGADQENMLKISGYPGMLNTFGIEQLLTPYRVNGITITGAQSAVVALENKFQVYQAVQDFNGKKLDRNHKLQVSSLVV
modifications: left off: His6, N-terminal, kept | GST, N-terminal, kept
oligomeric state [10]: monomeric

B10: PID-3^RRM F247E/Q251R (protein)
chain: PRGADQENMLKISGYPGMLNTFGIAQLLTPYRVNGITITGAQSAVVALENKEQVYRAVQDFNGKKLDRNHKLQVSSLVV
modifications: left off: His6, N-terminal, kept | GST, N-terminal, kept
oligomeric state [10]: homodimeric

B11: I182E and S185E: GST-tagged PID-3 mutant(s), Ile182 and Ser185 to glutamate (conjugate, UniProt O76616 1-307, looked up, variant I182E S185E)
Protein pid-3: MVAHQKADFKSKWAMVVTVNNLNDKKRADLREFSEWFIETLRLEGAFIGHYFNYEAAPVTIVETLPGNFDSCTNAYQKIHKEHPQVVLVVHILPQSQSNEYEWMKVLASRYGFVRQGLLYDNCANRFQNVETDQNSVFRNMCQWIYRSGTAIVRNEGNACGILHGKDPKPTFDKVLFNSEDEKDEVFKVLHAEEEPRGADQENMLKISGYPGMLNTFGIAQLLTPYRVNGITITGAQSAVVALENKFQVYQAVQDFNGKKLDRNHKLQVSSLVVSSPAVPLEWPSLKKSKKLVEQVGKPIRLSKVSS
modifications: GST tag
binding to ERH-2 in GST pull-down [5]: completely abrogated binding of PID-3^pep to ERH-2

B12: I182A and V186A: GST-tagged PID-3 mutant(s), Ile182 and Val186 to alanine (conjugate, UniProt O76616 1-307, looked up, variant I182A V186A)
Protein pid-3: MVAHQKADFKSKWAMVVTVNNLNDKKRADLREFSEWFIETLRLEGAFIGHYFNYEAAPVTIVETLPGNFDSCTNAYQKIHKEHPQVVLVVHILPQSQSNEYEWMKVLASRYGFVRQGLLYDNCANRFQNVETDQNSVFRNMCQWIYRSGTAIVRNEGNACGILHGKDPKPTFDKVLFNSEDAKDSAFKVLHAEEEPRGADQENMLKISGYPGMLNTFGIAQLLTPYRVNGITITGAQSAVVALENKFQVYQAVQDFNGKKLDRNHKLQVSSLVVSSPAVPLEWPSLKKSKKLVEQVGKPIRLSKVSS
modifications: GST tag
binding to ERH-2 in GST pull-down [5]: sufficient to abolish binding

B13: TOFU-6^RRM: TOFU-6 RRM domain, residues 1–99 (protein)
chain: MASSSTAYYLKDAGFHIRNIPKAWNDWNLFHVFQNFGKVSYCRVVGQSNDGQVQLGFVNMMSVADADEVRKNLNDGNLIGENFTLKVTDHKNVGGSLLP
modifications: left off: His10, N-terminal, state not stated | MBP, N-terminal, state not stated
Kd [14]: ~60 µM
PID-3/TOFU-6 interaction in pull-down [15]: the RRM domains of PID-3 and TOFU-6 mediate the interaction between the two proteins
